Residue numbers refer to the chain shown, from its start. Names and notes keep the numbering of the source.
B1: H1H6762P-DM1 (antibody, human IgG1, V domains shown)
VH: QVQLVESGGGVVQPGRSLRLSCAASGFTFSHYGMVWVRQPPGKGLEWVALISFDGTTKYYADSVKGRFTISRDNSKNTLYLQMNSLRAEDTAVYFCVGAIAAAAFDLWGRGTLVTVSS
VL: EIVMTQSPATLSVSPGERATLSCRASQSVSSDLAWYQQKPGQAPRLLIYSASARATGIPARFTGSGSGTDFTLTISSLQSEDFAVYYCQQYNNWPMYTFGQGTKLEIK
modifications: DM1 conjugated through SMCC linker; attachment residues not stated
B2: H1H6960N-DM1 (antibody, human IgG1, V domains shown)
VH: EVQLVESGGGLVKPGGSLRLSCAASGITFSSYSMNWVRQAPGKGLEWVSSISTRSSLIHYADSVKGRFTISRDNAKNSLYLQMNSLRDEDTAVYYCARWDAAAAFDYWGQGTLVIVSS
VL: DIQLTQSPSFLSASVGDRVTITCWASQGISSYLAWYQQKPGKAPKLLIYVASTLQSGVPSRFSGSGSGTEFTLTISSLQPEDFATYFCQQLNSYPLTFGGGTKVEIK
modifications: DM1 conjugated through SMCC linker; attachment residues not stated
B3: H1H6958N2 (antibody, human IgG1, V domains shown)
VH: QVQLVESGGGVVQPGRSLRLSCGASGFTFRNYGMQWVRQGPGKGLEWVTLISFDGNDKYYADSVKGRFTISRDNSKNTLFLQMNSLRTEDTAVYYCARGGDFDYWGQGTLVTVSS
VL: DIQMTQSPSSLSASVGDRVTITCRASQDIRKDLGWYQQKPGKAPKRLIYAASSLHSGVPSRFSGSGSGTEFTLTISSLQPEDFATYYCLQHNSYPMYTFGQGTKLEIK
notes: Tested with human IgG1 Fc (H1H); also called H2M6958N2
B4: H1H6804P (antibody, human IgG1, V domains shown)
VH: QVTLKESGPVLVKPTQTLSLTCTVSGFSLSDAGMGVSWIRQPPGKALEWLAHIFSNDGKSYSTSLKSRLTISKDTSKRQVVLTMTNMDPVDTATYYCARIRTGTYSLYLDYWGQGTLVTVSS
VL: DIQMTQSPSSLSASVGDRVTITCRASQSINSYLNWYQQKPGKAPKLLLYFASSLQSGVPSRFSGSGSGTDFTLTISSLQPEDFASYYCQESYSTPWTFGQGTKVEIK
notes: Human IgG1 Fc (H1H)
B5: H1H6959N2 (antibody, human IgG1, V domains shown)
VH: EVQLVESGGGLVQPGRSLRLSCAASGFTFDDYAMHWVRQAPGKGLEWVSGISWHSGIIGYADSVKGRFTISRDNAKNSLYLQMNSLRTEDAALYYCAKIGSYFYFDSWGQGTLVTVSS
VL: EIVLTQSPGTLSLSPGERATLSCRASQSVSSNYLAWYQQKPGQAPRLLIYGASSRATGIPDRFSGSGSGTDFTLTISRLEPEDFAVYYCQQFGSSGYTFGQGTNLEIK
notes: Tested with human IgG1 Fc (H1H); also called H2M6959N2
B6: H1H6953N (antibody, human IgG1, V domains shown)
VH: EVQLLESGGGLVQPGGTLRLSCAASGFTFSAYAMSWVRQAPGKGLEWVSSINVRAGDTYYADSVKGRFTISRDNSKNTLFLLMNSLRAEDTAAYYCAKARYSSNWGFDFWGQGTLVTVSS
VL: DIVMTQSPDSLTVSLGARTTINCQSSQTILHSSNNHNYLAWYQQKPGLPPKLLIYWSSTRESGVPDRFSGSGSGTDFTLTISSLQAEDVAIYYCQQYSNTPYTFGQGTKLEIN
notes: Tested with human IgG1 Fc (H1H); also called H1M6953N
B7: H1H6803P (antibody, human IgG1, V domains shown)
VH: EVQLVESGGGVVRPGGSLRLSCAASGFKFDDYGMTWVRHVPGKGLEWVSGINWNGGRTGYTDSVKGRFTISRDNAKNSLYLQMNSLRAEDTALYHCAGARRDAFDIWGQGTMVTVSS
VL: DIQMTQSPSSLSASIGDRVTITCRASQNIIKYLNWYQQNAGKAPKLLIYTASSLQSGVPSRFSGSGSGTDFTLTISSLQPEDFATYYCQQSSSSPYTFGQGTKLEIK
notes: Human IgG1 Fc (H1H)
B8: H1H6801P (antibody, human IgG1, V domains shown)
VH: QVQLQQSGPGLVKPSQTLSLTCVISGDSVSSNTAWNWVRQSPSRGLEWLGRTYYRSKWYNDYAVSVKSRITINPDTSKNQFSLLMNSVTPEDTAVYYCARVVRGLNYFDYWGQGTLVTVSS
VL: DIVMTQSPDSLAVSLGERATINCKSSQSVLYNSNNKNYLAWYQQKPGQPPKLLIYWSSSRESGVPDRFSGSGSGTDFTLTISGLQAEDVAIYYCQQYSTIPYTFGQGTKLEIK
notes: Human IgG1 Fc (H1H)
B9: H1H6960N (antibody, human IgG1, V domains shown)
VH: B2 VH
VL: B2 VL
notes: Tested with human IgG1 Fc (H1H); also called H2M6960N
B10: H1H6807P (antibody, V domains shown)
VH: QVQLVESGGGVVQPGRSLRLSCAASGFTFSDYNMHWVRQAPGKGLEWVAVIWYDGSNKHYADSVKGRFTISRDNSKNTLYLQMNSLRAEDTAVYYCARDGFTIFGMVLDYWGQGTLVTVSS
VL: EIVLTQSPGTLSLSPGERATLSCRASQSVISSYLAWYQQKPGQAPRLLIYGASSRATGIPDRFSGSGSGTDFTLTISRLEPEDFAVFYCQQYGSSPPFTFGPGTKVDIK
notes: Human IgG1 Fc (H1H)

target: T1, human prolactin receptor (PRLR) (human, UniProt P16471 25-622); test: cell-based or functional assay
T1 sequence: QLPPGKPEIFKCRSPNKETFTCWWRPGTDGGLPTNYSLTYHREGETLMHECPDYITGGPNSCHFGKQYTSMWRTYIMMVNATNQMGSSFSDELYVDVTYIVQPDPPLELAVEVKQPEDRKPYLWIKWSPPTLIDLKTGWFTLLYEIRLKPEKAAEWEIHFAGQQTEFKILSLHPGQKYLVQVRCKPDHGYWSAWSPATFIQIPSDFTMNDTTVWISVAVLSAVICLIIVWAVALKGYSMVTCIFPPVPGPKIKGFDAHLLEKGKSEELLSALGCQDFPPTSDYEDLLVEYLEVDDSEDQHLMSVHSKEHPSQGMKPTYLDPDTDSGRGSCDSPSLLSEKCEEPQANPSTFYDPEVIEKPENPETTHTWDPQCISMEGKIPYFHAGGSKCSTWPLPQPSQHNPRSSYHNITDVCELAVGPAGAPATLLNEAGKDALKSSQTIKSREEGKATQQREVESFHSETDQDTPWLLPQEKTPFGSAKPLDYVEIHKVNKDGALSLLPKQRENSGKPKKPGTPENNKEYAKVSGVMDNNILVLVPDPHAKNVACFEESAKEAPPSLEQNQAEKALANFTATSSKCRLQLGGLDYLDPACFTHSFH

Binder	% Kill, PC3/PRLR cells	IC50, cell viability, PC3/PRLR cells	% Kill, 293/PRLR cells	IC50, cell viability, 293/PRLR cells
B1	66%	0.98 nM	–	–
B2	82%	1.13 nM	95%	0.38 nM

target: T1, human prolactin receptor (PRLR); test: cell-based or functional assay; remark: another data set of the same source

Binder	% Kill, MCF7/PRLR cells	% Kill, MCF7 cells	% Kill, T47D cells	IC50, cell viability, MCF7/PRLR cells	IC50, cell viability, MCF7 cells	IC50, cell viability, T47D cells
B1	83%	64%	80%	0.46 nM	110 nM	12.6 nM
B2	78%	77%	71%	0.29 nM	100 nM	5.1 nM

Target: T2, hPRLR.mmh (soluble monomeric human PRLR) (human)
T2 construct: called soluble monomeric PRLR protein
T2 chain: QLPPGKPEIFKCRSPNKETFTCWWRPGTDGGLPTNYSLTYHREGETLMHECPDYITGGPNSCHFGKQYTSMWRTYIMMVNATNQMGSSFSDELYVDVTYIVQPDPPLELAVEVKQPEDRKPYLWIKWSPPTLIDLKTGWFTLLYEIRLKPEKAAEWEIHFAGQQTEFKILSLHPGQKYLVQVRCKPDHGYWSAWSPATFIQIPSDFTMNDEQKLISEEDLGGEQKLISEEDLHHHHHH
Test: SPR Biacore, 25 C, mAb capture
Method: (§1) Measurements were conducted on a T200 Biacore instrument. Kinetic association (kₐ) and dissociation (kd) rate constants were determined by processing and fitting the data to a 1:1 binding model using Scrubber 2.0 curve fitting software.

Binder	Kd	T½	koff	kon
B3	1.17 nM	42.5 min	0.000272 s⁻¹	233000 M⁻¹ s⁻¹
B4	1.4 nM	18 min	0.000634 s⁻¹	453000 M⁻¹ s⁻¹
B5	202 nM	0.3 min	0.036 s⁻¹	179000 M⁻¹ s⁻¹
B6	0.268 nM	54.5 min	0.000212 s⁻¹	792000 M⁻¹ s⁻¹
B7	1.67 nM	84 min	0.000137 s⁻¹	82400 M⁻¹ s⁻¹
B8	0.894 nM	15 min	0.000756 s⁻¹	846000 M⁻¹ s⁻¹
B9	6.74 nM	15.8 min	0.000729 s⁻¹	108000 M⁻¹ s⁻¹
B10	0.189 nM	80 min	0.000144 s⁻¹	761000 M⁻¹ s⁻¹

Target: T3, hPRLR.mFc (soluble dimeric human PRLR) (human)
T3 construct: dimeric PRLR construct
T3 chain: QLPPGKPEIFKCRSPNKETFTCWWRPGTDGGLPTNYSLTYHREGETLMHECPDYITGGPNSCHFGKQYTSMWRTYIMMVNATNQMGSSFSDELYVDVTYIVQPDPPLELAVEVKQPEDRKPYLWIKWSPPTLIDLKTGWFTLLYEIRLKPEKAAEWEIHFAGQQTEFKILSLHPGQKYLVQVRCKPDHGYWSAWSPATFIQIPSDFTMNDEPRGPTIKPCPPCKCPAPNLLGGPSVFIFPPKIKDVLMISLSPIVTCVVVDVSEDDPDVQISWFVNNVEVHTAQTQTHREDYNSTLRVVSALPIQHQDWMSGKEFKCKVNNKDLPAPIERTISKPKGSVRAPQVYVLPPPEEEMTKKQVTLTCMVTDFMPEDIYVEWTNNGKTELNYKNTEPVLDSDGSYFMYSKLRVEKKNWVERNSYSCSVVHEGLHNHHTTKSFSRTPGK
Test: SPR Biacore, 25 C, mAb capture
Method: as §1

Binder	Kd	T½	koff	kon
B3	0.0867 nM	316 min	3.66e-05 s⁻¹	422000 M⁻¹ s⁻¹
B4	0.193 nM	133 min	8.69e-05 s⁻¹	451000 M⁻¹ s⁻¹
B5	1.45 nM	22.3 min	0.000518 s⁻¹	359000 M⁻¹ s⁻¹
B6	0.067 nM	242 min	4.77e-05 s⁻¹	711000 M⁻¹ s⁻¹
B7	0.607 nM	184 min	6.29e-05 s⁻¹	104000 M⁻¹ s⁻¹
B8	0.161 nM	106 min	0.000109 s⁻¹	675000 M⁻¹ s⁻¹
B9	0.141 nM	324 min	3.56e-05 s⁻¹	252000 M⁻¹ s⁻¹
B10	0.0803 nM	212 min	5.46e-05 s⁻¹	680000 M⁻¹ s⁻¹

Target: T4, macaca fascicularis (mf) PRLR.mmh (soluble monomeric monkey PRLR) (Macaca fascicularis)
T4 construct: called soluble monomeric PRLR protein
T4 chain: T2 chain with I76V, A110T, I125M, I158T, T207I
Test: SPR Biacore, 25 C, mAb capture
Method: as §1

Binder	Kd	T½	koff	kon
B3	1.44 nM	41.3 min	0.00028 s⁻¹	195000 M⁻¹ s⁻¹
B4	1.99 nM	18 min	0.000657 s⁻¹	331000 M⁻¹ s⁻¹
B5	129 nM	0.7 min	0.0167 s⁻¹	129000 M⁻¹ s⁻¹
B6	0.438 nM	36.3 min	0.000319 s⁻¹	727000 M⁻¹ s⁻¹
B7	3.37 nM	55 min	0.000209 s⁻¹	62100 M⁻¹ s⁻¹
B8	1.88 nM	9 min	0.00123 s⁻¹	657000 M⁻¹ s⁻¹
B9	6.2 nM	19.8 min	0.000583 s⁻¹	94000 M⁻¹ s⁻¹
B10	0.346 nM	76 min	0.000151 s⁻¹	437000 M⁻¹ s⁻¹
